The assay addresses Vrl1-Envy (S. cerevisiae). The experiment in a line: co-IP.

B1: Vin1-3HA (natural protein)
chain: MENDKASHASPSIGVNEFVVQGEISIDDSERSVKSVSVSISDDEDSKTDVQDNMATPSTRSKFQTDLAIDNRLLEKDPKYKKLFTEKRRRRRPESCINLMTKGKGTGQKDNINDQIFSLRILPGSDLNSLKDSLWIIKISTQPDVEKTIARAFSDFYWLYHQLQNNHWGKTIPPPTRSNILVEKDEFAINHLFMIRNNEKYDPIFNFKPEYIISLQLMAMIKHIFNDKVLRLDSNFIDFISWDDDLPESLQIVVDDSTFTGDKILMTSSQFRELKEFHKQSKKVESITNSHASLIPVTELTEIYISPTKLFSRKDYQRLFQPQSTDNTFNNNDPLIQEWIPKSKTLFTSLSFGSSAPTYQEASTEIQACHDWVSISKEQWKQLLYHVLQYIVDEAVKVNSVINEFTECLKQISLDEVIRANSELFLKFSKLNESFLKKFKGASRQDILKLIILFDENVRFCESFESILNQRLKLGKILSIIEVDLDKKKNFLDKLSPGNNNSNNEDLKIRTAEDEYRIVLKRYNRVKQSWEKIMEDILNERKEFEKREAAEVNSCLKSIRDLNMDEKKHYLQLWQDFVPDEHISQ
B1: the recovery of Vin1 in the co-IP was found to be 64%.

For the origin of these results see paper doi:10.1101/2021.11.29.470412.
